Experimental data published in the supplement of paper PMC12636428.

Test system: Saccharomyces cerevisiae
Assay: transcriptional activation domain activity (GFP:mCherry ratio, weighted mean of sorted bins, harmonized to initial dataset scale) (arbitrary fluorescence ratio units); higher = stronger transcriptional activation
Settings: beta-estradiol 1 µM; induction time 4 h
How it was run: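 After a 1:5 dilution into SC with 1 uM beta-estradiol and 4 hours at 30 °C, yeast diploids carrying a GFP reporter and URA3-integrated barcoded tiles were sorted into 8 bins by GFP:mCherry ratio. The tiles were fused to an estradiol-inducible synthetic transcription factor. Barcodes were sequenced, tiles below 50 reads were discarded, and activation activity was taken as the read-weighted mean of bin median fluorescence, averaged across barcodes and linearly mapped onto the initial dataset scale.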

Sequence	transcriptional activation domain activity
RRDALRAQQQRDTHARHGAGAARKHGQPVCVRQHRGQLHLSEPVGGAAAAAVH	66200
IHLFISSFPLLFICSLPYAFLSFFPHLFISYFLSSFYSLSTHLFHSFFPFLVI	59400
KISALCCVLSVFKIDDLVNDPILNKVLHLNNIYLDVLISLILRNNQPTIELMV	57900
MGLYIFIFSFSFFLFFFFFFFFFFFVLGLVFVSMRTERLLSSQYFFFFWFFSG	27800
MEGYELRMVALLLFSLLFVVAKKRGVHTNPSRLAVFVVLLRLCFVFCCLLFLA	85000
DEEGRKRGGEREKGQHAGDERRRRRRRGEREGRERQKEGRRGPGRQSKDGKEG	49500
ARGEKNPPMTQKDLATKVNEKPSVINDYESGRAVPDQKVLAKLERALGVKLRG	50400
GAAHVPSGLSEEKELEQEKKKADRRKGMREKAKEREAKRPVEVAAPEPVAAAP	23700
MSEPPRKRAKLACVTCNARRVKCDVTERRPCGNCIAGNVECETRESKRGKHPR	32700
FHIGIYARVLMCLLLDKKARPLPEDMKLWVDLLRWLKGGSPGGALSFFTYMEL	30900
MVRRLINLFLCRPCLLTFLCYLWVFNIFSSASDLYFLFLLSLFGFVFVMGWGS	38900
MITVALYIIGRGFFSFFFIFCHFTILVFLFLAAYFFLFFSCPFLLLFYFFWFT	54200
RVHPTCLKEFGTADFICGQCNSIYRSGRFLRIARCICLMCHLLSLASTVGLIF	57300
PKWHRYEDYEALFRVRNLCFPLILSGDIQLTLEYWWSIFSTSILRRPIFELNI	69600
EKKERAAEPIAEITTEAAAEPKAAAEEATPKKDKKEKKSKKEKKTEESAVTSE	34600
CFSLCFSLCFPFAFPLLFPFFPLLFPLLFPLLSLCFSLCFSLLPFPLELPFLF	37100
EGKKREEEEGRRKEGGTEEDREREPKRGDRRSRGKAGQSPEARERGTGGQGRR	37200
GFSRTAGAKSMPASRRTSASGDDDELAGHLQGLSLAGERSNRVSPAPAPVSAS	44900
FTFILMMACLVSGIGWCLLYFTCMYLLLIYYILSLFYPPLASCNSFSFFFSFV	64100
VKGGGDSRKVKGAESGQSGSGSGKQSGSRRRAVSSSRTRGSKEPDASIKSNGT	35100
MVLQNSMIVIFCHSFDIVWSVFLIGHYCILFYRYLIFCYVCVSFNWTFYLYIF	58700

Sequence	transcriptional activation domain activity
YFYMRLISCLGLIAHSPMLWATGHNSARHELIQKMDFFPKRIGYLLSRLCVLI	51600
YCDAKPGHSLVFAGHAGELELYLDKSCDADSIMTRENLGSLNRFVRLLLLLAK	38300
ITALVIFWSIPVAFVGSLSNLDSLTNKVHFLRFLNHLPKKLKGLVTSLLPTIL	34700
LPHFPIIHPSLLDLDLDSLQRYTNEDGYDDAENAQLFDRLSQGTDKEYDYEHY	71500
GCDYVFSMYVLGAGLWLFIFYLPPIVFSIVCLCYLTLIWAVSWVLLWCLIFIL	53900
GLLYILFCYQMNLKTHSLKVIALAEESVRLVHDRQSKRLWLPSITWKKWFRTG	74800
RNVYLSRFWYLSFYSGNQLRRDLNVIVGVGKNWNLPSWWAPILRYIAAPILSI	75600
TSLRLVMFQITFLDLFFKAYGSNIARLDNNYGFPDKQLPERMVEEVKAIYKIN	56500
AGSSTFRDKGKGRASDAGPVSRTGDNEGGEESAGEGNQREKKRVKKEVKKAPR	20300
GTKKEEKGEKDKTETKKSKKSSKHNKVTSKKSSSKKSTRKAAISDADSSDDSS	35100
WLAHSKKKTCDVCKHPYSFTKVYATDMPSRLPPVLLLRRVAQQSFFAMLFAVR	37900
HMESDEEKERKPKKARKQKAEGSGDEAEPKKKRRGKLKRGGGDHEEAAVAAGE	39200
MGVYLQKLGWGYRVWRFLFWMGLSLVSFLFFICCFSLSVHTCFFFFWLGRLGW	27300
YLYLCLQLLYYCRYCVFAIYTCHLPFAYTCMLMLLATGPYFYGLFICLRYLCC	24900
MPMLLIIFPLLYFLYCIHNLFHIISHYYEVFNTFYIVILHLSFLFYLHFILFH	69500
EVKLEEAEATGASVKRKSRKSKIETDIADGADNEATPSGSRRRGRPRKSQPDP	59400
GSSAFGASGSSGGAFGQPAAQQQQSAFGGGGGLFGKPQGSSFGSTALATTAGQ	55800
KCLRLAIHIPLYPLFRTALVLRVQPSNAPLIRSVKDFLIYYLHDLQRFFILSP	70000
LGFLYDLIPFFFCCLPFLPFLAPPLKKHLALFQFHPLLHLPLLLPFFFLYFRP	50200
MILRIWGFHYLYMLVPGWYLCFRFSFFLFYFLFLFLLQFLHITLPFSCLVSFW	46200
MLLTLQSYFFFLLMFLVNSVSLLSFFSIFVFIIFLRYGCRMLWWHLHCIYPIF	38000

Sequence	transcriptional activation domain activity
ELGFVEIVQVSPRFGILLLCMTLSMISIIVDLLSVTPVIPIGVINPFWKFAFV	39800
AAAKAAPAIEEEPQEEQPEEPDKAAAPKKRGRKRKSSGVGAATAAAAAVPRGP	9830
DDEEENKSAPAKKSRAKKTVKKEEDDDDNNAEEAKPAPAKKSRAKKAVKKEED	57900
VAEDAVVAEDAVAAVVDVDVNHVAAAAVVDVEDVEGAEDVEGVVDAAAHRVAA	16900
MPEVESARPTTSSKCIVLFYLFFLPCLSPFLYFLMLTMASVPSPLGFLLLLVC	66100
VVPCLALVKKKSFFFVFFLLFLFLCTHLTACIAFSPFLFLFLFVFLFVALFSV	40400
LRLVYCQVKKKKYKSINRYVAIHELSYNVMIWRFLAIYHSSQRLKWSIFLLSF	42100
MWVGELLGYYCTMALSKALGCKVRLLRAWAEMHNICGFYSRDSIPCRMYASRV	61800
EDEEETAAARSTSKRTRRGRVLDDSDEEDDEAGTVSPAKAATGAESEGEAGAA	30000
MSLLYYMVQSTTTMLLLTPPLCFTFFFIFFLLIFLFFIFYFLFLFYFINRDQS	47600
ITHCPSTRVAYTYIVGLSTNAVMIGFVLCPHCFLAFQNPSQTLWFLSLFLLCL	47700
SESDTDSEEEEIEEDEGAAETRPGIRLQREEKAVETGEITNRLAIVNIDWDHL	32000
RRNRRTDKKRNEKESEHEGSTRKRTSYDKDDERAHSDSRRSRHHHRKERKNRH	32100
FSLLLDSYIFLFNYCPVRYRYGYLIKDLVQNASRIKSIYTNSDLKFLFSFVWM	53800
MCVLFGNFFFFLLFSFCFYLFFFLSSFLAPLPAFFLLFCLLMGRKIGVGIIPL	40800
FLDCLKYILHNSHHLLVTVCDSFERTVRGLNKLKKMNVRQKDIYIGYYLLQYG	46200
SQLYFNVYPNELDERFSLFDPTYSLQWLFEHLFTTRVVELTRMLCFVMCIFVL	37700
LLRLLQCVFVAALLLVSKLCTFTEMMPDVVLRQFLVVAIDILFYGKLTIVPWN	54600
MERNGNVVWILFWHFHLLFFWAMEKSFDFLHSKTLSPFWFITYFLYLLILFYL	31900
SFLNDAMSEIHTFGDFNGELDSTFLEFSGTEIKEPNNFITENTNAIETAAASM	113000
TMSMLCLEGFIIIYLLRETTLSFLDIIRCFSSMDPVALKLFVRCFLYTLVMCG	77500

Sequence	transcriptional activation domain activity
HLINEDKYQSFSIKQWLPLVYNMLFYIKEKEELVLRINSSFTLRRFVEMAAKE	50700
MLRLLAMLAKYVAFLLVLLNIRSFPLVWHFRLFRAFIQLGLSLQWHKLTHFYL	60600
KNEKADKAEKTEKTEQQQSSGARRNRRGRGGNRGGEGGKESKEGGRPAAAAKT	11200
TFLANILPITFYFYFYLHFLFLFFFFLFSLSAFLFFLFLYFYFLFSPLFLPFI	63700
MARLLFIPIFVNLSFPHHKSYFFLTSMLTLLLQLYLLLSLCWLILLLPCLKDS	40400
NSSSNNNVSTVPSSMMHSSTLNGTSGLGGDNDDNMLALSLATLANSATASPRL	27900
NLHNASTSSFNNEAFWKPLDSAIDHHSGDTNPNSNMNTTPNGNLSLDWLNLNL	84600
LACFLGLTFTLFLLIYFFFLSIFSFIILSLLCVLHHSACLPCLNFHMLPFCPF	61100
MLCLGLVDVYVNFLIFQLYNFLFLFGFLRWINEFVFGFPIHCLFCVILYLLIL	30900
DSLSNSNDVLNNTPNSSTSMDWLDNVIYTNRFVSGDDGSNSKTKNLDSNMFSN	66900
VLLLVIFACAIVYLKSLVYSPSPFPTLIACYMSHSNRRYLSVMYGVVLVHQIT	75600
RQLAWECLHHCSVQLRPSGATIRDSLRAAAHYVKHLAIQHKLVLVALQPFFAY	43100
MFFLSSFSALLAFSPPPSLLLLLLLLLTFPLSGFLALFLPRFSISLLTLSFFY	50700
VVNLLQSLHFGGLLNHKKRHYFWIIFGAIFFWEWIPQFPFPLLTAFSVICLVD	47400
GLEFVEPWTELIEQRYMQCGDGDNNNFENLYNLFVNSNNINNDINNSRPITRK	81200
KLTLADLAPSPMAYRLWMFISGLYSLVDPFVRPLVRTYFAACLRLLIRWVPGI	59400
MNYLFSCFKFFLFFFFFLLFSFSPHLFFIFSCLLYLACLCVCVWWKGPFSCIS	72500
KDKNKEKERGKHKHRRRERDGDGDGDEEDGRSSKKHKKERGQKRSEKEGGGED	42100
REGHLFSCIYIMYCQILFRKVGWSSVFDCAFHVLLAMSAAGNFLVVGAIRCKC	37300
IAQLRRDLFHAVWRLILTPALAEAYCHGIVIMCGDGVLRRVFPRFLLYSADYP	63900
